Laboratory results from PMC3266742 (Molecular Cell, 2010).

Target: ubiquitin (mono-Ub), untagged, purified (UniProt P0CG47 1-76)
Experiment: NMR titration

Kd: 224 µM
B1: 6xHis-tagged Doa1 β-Prp (domain or fragment, S. cerevisiae)
chain: GYQLSATLKGHDQDVRDVVAVDDSKVASVSRDGTVRLWSKDDQWLGTVVYTGQGFLNSVCYDSEKELLLFGGKDTMINGVPLFATSGEDPLYTLIGHQGNVCSLSFQDGVVISGSWDKTAKVWKEGSLVYNLQAHNASVWDAKVVSFSENKFLTASADKTIKLWQNDKVIKTFSGIHNDVVRHLAVVDDGHFISCSNDGLIKLVDMHTGDVLRTYEGHESFVYCIKLLPNGDIVSCGEDRTVRIWSKENGSLKQVITLPAISIWSVDCMSNGDIIVGSSDNLVRIFSQEKSRWASEDEI
